How the values were obtained:
H3_1–20 K9me2 peptide = assay: Fluorescence polarization binding to H3K9me2 peptide
Description: (§1) Polarization assays with fluoresceinated H3_1–20 K9me1 or K9me2 peptides, 147 bp 601 DNA template, and core nucleosomes were performed and Kd values estimated as described ([11]) with the following modifications: The reaction buffer was 100 mM Tris pH 8, 100 mM KCl, 1 mM MgCl2, 20 μM ZnSO4, 10 mM BME, 0.1% NP-40. The concentration of peptides and nucleosomes was 150 nM and 200 nM for DNA. Polarization measurements were conducted on a Biotek Cytation 5 (peptide and nucleosome) or Molecular Devices Spectramax (DNA) plate reader with low-volume plates (Corning) in either 10 μl (peptide, nucleosome) or 40 μl (DNA) total volume.

H3_1–20 K9me1 peptide = assay: Fluorescence polarization binding to H3K9me1 peptide
Description: as §1

B1: full-length G9a: E. coli expressed MBP:FL-G9a (protein)
chain: MRGLPRGRGLMRARGRGRAAPTGGRGRGRGGAHRGRGRPRSLLSLPRAQASWAPQLPAGLTGPPVPCLPSQGEAPAEMGALLLEKEPRGAAERVHSSLGDTPQSEETLPKANPDSLEPAGPSSPASVTVTVGDEGADTPVGAASLIGDEPESLEGDGGRIVLGHATKSFPSSPSKGGACPSRAKMSMTGAGKSPPSVQSLAMRLLSMPGAQGAATAGPEPSPATTAAQEGQPKVHRARKTMSKPSNGQPPIPEKRPPEVQHFRMSDDMHLGKVTSDVAKRRKLNSGSLSEDLGSAGGSGDIILEKGEPRPLEEWETVVGDDFSLYYDAYSVDERVDSDSKSEVEALAEQLSEEEEEEEEEEEEEEEEEEEEEEEEEDEESGNQSDRSGSSGRRKAKKKWRKDSPWVKPSRKRRKREPPRAKEPRGVNGVGSSGPSEYMEVPLGSLELPSEGTLSPNHAGVSNDTSSLETERGFEELPLCSCRMEAPKIDRISERAGHKCMATESVDGELLGCNAAILKRETMRPSSRVALMVLCEAHRARMVKHHCCPGCGYFCTAGTFLECHPDFRVAHRFHKACVSQLNGMVFCPHCGEDASEAQEVTIPRGDGGTPPIGTAAPALPPLAHDAPGRADTSQPSARMRGHGEPRRPPCDPLADTIDSSGPSLTLPNGGCLSAVGLPPGPGREALEKALVIQESERRKKLRFHPRQLYLSVKQGELQKVILMLLDNLDPNFQSDQQSKRTPLHAAAQKGSVEICHVLLQAGANINAVDKQQRTPLMEAVVNNHLEVARYMVQLGGCVYSKEEDGSTCLHHAAKIGNLEMVSLLLSTGQVDVNAQDSGGWTPIIWAAEHKHIDVIRMLLTRGADVTLTDNEENICLHWASFTGSAAIAEVLLNAQCDLHAVNYHGDTPLHIAARESYHDCVLLFLSRGANPELRNKEGDTAWDLTPERSDVWFALQLNRKLRLGVGNRAVRTEKIICRDVARGYENVPIPCVNGVDGEPCPEDYKYISENCETSTMNIDRNITHLQHCTCVDDCSSSNCLCGQLSIRCWYDKDGRLLQEFNKIEPPLIFECNQACSCWRSCKNRVVQSGIKVRLQLYRTAKMGWGVRALQTIPQGTFICEYVGELISDAEADVREDDSYLFDLDNKDGEVYCIDARYYGNISRFINHLCDPNIIPVRVFMLHQDLRFPRIAFFSSRDIRTGEELGFDYGDRFWDIKSKYFTCQCGSEKCKHSAEAIALEQSRLARLDPHPELLPDLSSLPPINT
affinity for H3K9me2 peptide, in words (H3_1–20 K9me2 peptide): no discernable affinity for me1 or me2 peptides | affinity for H3K9me1 peptide, in words (H3_1–20 K9me1 peptide): no discernable affinity for me1 or me2 peptides
